How the values were obtained:
[1] = substrate: COc1cc(/C=C/C=O)cc(OC)c1O; assay: purified protein; assay type: biochemical, Triticum aestivum; conditions: NADPH as co-substrate; GST fusion
[2] = substrate: COc1cc(/C=C/C=O)ccc1O; assay: purified protein; assay type: biochemical, Triticum aestivum; conditions: NADPH as co-substrate; GST fusion

B1: TaCAD12 (GST-TaCAD12) (Triticum aestivum) (protein)
chain: MAPTATAAEQSQQHTKKAVGLAALDASGHLSPLAITRRSTGDDDVVIKILYCGICHSDLHSIKNDWKNAKYPMIPGHEIAGEVTEVGKNVTKFKAGDRVGVGCMVNSCQSCESCDKGFENHCPGMIFTYNSVDRDGTRTHGGYSSMVVVHERFVVRFPDAMPLDKGAPLLCAGITVYSPMKYHGLNAPGMHLGVLGLGGLGHVAVKFGKAFGMKVTVISSSPGKKQEALERLGADAFVVSKDADEMKATMSTMDGIINTVSANVPMAPLFGLLKPNGKMIMVGLPEKPIEVPPFALVARNKTLAGSCIGGMRDTQEMLDLAAKHGVTADIEVIGAEYVNTAMERLAKADVRYRFVIDIANTLDKAAAATTE
notes: N-terminal GST fusion (pGEX-4T-1), expressed in E. coli BL21, purified; tag kept
- Km [1]: 34.18 ± 5.56 µM
- Km [2]: 28.91 ± 3.67 µM
